Laboratory results from PMC7833764.

What was measured:
[1] = target: human GUCY2C (guanylyl cyclase 2C), recombinant protein (human) (UniProt P25092)
[2] = target: human CD3 epsilon (CD3ε) (Homo sapiens) (UniProt P07766)
Chain of UniProt P07766 (P07766 23-207): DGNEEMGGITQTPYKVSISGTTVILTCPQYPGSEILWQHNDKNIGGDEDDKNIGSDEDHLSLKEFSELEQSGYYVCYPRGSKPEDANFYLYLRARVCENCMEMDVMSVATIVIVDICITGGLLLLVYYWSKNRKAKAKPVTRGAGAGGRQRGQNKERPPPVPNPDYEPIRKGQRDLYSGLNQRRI

Chain of UniProt P25092 (P25092 24-1073): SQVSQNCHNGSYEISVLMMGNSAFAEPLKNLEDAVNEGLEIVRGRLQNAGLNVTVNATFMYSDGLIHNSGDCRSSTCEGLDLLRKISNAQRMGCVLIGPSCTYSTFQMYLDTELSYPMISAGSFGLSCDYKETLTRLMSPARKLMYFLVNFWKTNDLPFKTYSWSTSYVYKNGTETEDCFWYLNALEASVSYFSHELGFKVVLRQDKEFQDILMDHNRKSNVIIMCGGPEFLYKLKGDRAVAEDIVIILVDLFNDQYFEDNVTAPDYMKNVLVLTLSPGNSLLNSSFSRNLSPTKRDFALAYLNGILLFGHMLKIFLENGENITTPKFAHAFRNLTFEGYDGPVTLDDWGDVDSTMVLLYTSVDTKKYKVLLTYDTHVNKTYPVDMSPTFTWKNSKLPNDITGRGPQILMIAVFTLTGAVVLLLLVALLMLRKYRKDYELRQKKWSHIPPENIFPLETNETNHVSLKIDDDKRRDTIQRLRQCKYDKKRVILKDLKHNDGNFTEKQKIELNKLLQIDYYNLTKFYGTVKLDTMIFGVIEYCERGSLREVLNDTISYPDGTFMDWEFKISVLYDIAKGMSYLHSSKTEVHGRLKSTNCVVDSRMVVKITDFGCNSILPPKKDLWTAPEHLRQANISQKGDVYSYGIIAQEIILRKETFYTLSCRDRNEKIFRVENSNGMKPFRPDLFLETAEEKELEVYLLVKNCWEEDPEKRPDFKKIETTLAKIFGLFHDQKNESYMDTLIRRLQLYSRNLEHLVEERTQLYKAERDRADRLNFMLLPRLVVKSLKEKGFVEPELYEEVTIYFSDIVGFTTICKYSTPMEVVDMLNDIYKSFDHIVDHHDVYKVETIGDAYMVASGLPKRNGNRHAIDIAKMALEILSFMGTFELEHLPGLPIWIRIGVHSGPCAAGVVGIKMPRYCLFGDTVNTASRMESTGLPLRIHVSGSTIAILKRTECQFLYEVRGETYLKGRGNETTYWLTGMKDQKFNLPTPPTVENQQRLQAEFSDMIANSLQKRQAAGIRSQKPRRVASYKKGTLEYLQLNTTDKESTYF

- fold lower affinity than GUCY2C-0247 [1]: 2.5 fold
- fold lower affinity than GUCY2C-0247 [2]: 7.2 fold
Substance: PF-07062119, anti-GUCY2C x anti-CD3ε T cell bispecific antibody (diabody-Fc)
